The text below walks through data of patent publication US20050202532A1, “Helical synthetic peptides that stimulate cellular cholesterol efflux” (The Regents of the University of California, published 2005).

For assay [1], the target named is ATP-binding cassette transporter A1 (ABCA1), endogenous in J774 macrophages (Homo sapiens (Human)) (UniProt O95477).
Assay [2] deals with ATP-binding cassette transporter A1 (ABCA1), endogenous in J774 macrophages (Homo sapiens (Human), UniProt O95477). Description: cell-based or functional assay.

Molecule “full-length recombinant apoA-I (His-tagged) (from UniProt P02647) (ligand)” returned a concentration giving maximal cholesterol efflux in assay [1] of 10 µg/mL.
Take Ac-PALEDLRQGLLPVLESFKVSFLSALEEYTKKLN-NH2 [9/10 peptide, aa 209-241 of apoA-I (33-mer)]: in assay [2], the “potency in mediating ABCA1-dependent cholesterol efflux against the 1/9 chimera” value is 2 fold (against the 1/9 chimera).
